The test deals with 158P1D7 receptor on HUVEC cells (unidentified). In words: flow cytometry on HUVEC cells; bound ECD detected with anti-158P1D7-PE (MAb M15/X68.2.22 at 1 ug/ml and anti-mouse-PE); by the order of the key, 2.88% is taken as the sample 'HUVEC No ECD' and 6.53% as 'HUVEC 158P1D7 ECD' [panel printed as Fig. 34A]. (A flow cytometer gives signals particle by particle.)

Among the data in patent US20050208039A1 are % gated values, retold here.

In the case of “Recombinant extracellular domain (ECD) of 158P1D7 (amino acids 16-608) (from UniProt Q9H5Y7 16-608)”, the % gated is 6.53%.
